This experiment concerns the target T1, 人胸苷激酶1(TK1) (human) (UniProt P04183).
T1 sequence (looked up): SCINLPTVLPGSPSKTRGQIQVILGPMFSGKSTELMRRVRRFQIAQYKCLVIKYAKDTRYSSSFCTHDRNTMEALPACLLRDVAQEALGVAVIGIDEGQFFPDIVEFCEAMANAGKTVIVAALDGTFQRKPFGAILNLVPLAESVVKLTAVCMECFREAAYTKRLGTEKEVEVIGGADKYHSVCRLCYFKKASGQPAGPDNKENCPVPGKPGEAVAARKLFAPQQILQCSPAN
The experiment in a line: cell-based or functional assay.

B1: 鼠抗人胸苷激酶1-IgG单克隆抗体(SSTK小鼠杂交瘤细胞株057M) (antibody, V domains shown)
VH: EVKLVESGGGLAQPGGSLRLSCATSGFTFSDYYMNWVRQPPGKAFEWLGFIRNKEYGNTAEYNPSLKGRFTISRDDSQSILYLQMNTLRVEDSAIYYCARDGAFDYWGQGTSLTVSS
VL: DIVMTQSPASLAVSLGQRATISCRASKSVSTSGYSYMHWNQQKPGQPPKLLIYLASNLESGVPARFSGSGSGTDFTLNIHPVEEEDAATYYCQESREFPTVGGGTNLEIK
B1: the 肿瘤细胞凋亡频率 (Annexin V-FITC/PI), KATO-Ⅲ, 10μg/ml antibody, 72 h was 3.49 倍; the 肿瘤细胞凋亡频率 (Annexin V-FITC/PI), KATO-Ⅲ(STEM), 10μg/ml antibody, 72 h is 2.59 倍; the 肿瘤细胞凋亡频率 (Annexin V-FITC/PI), NCI-N87, 10μg/ml antibody, 72 h is 1.46 倍; the 肿瘤细胞凋亡频率 (Annexin V-FITC/PI), NCI-N87(STEM), 10μg/ml antibody, 72 h was 2.21 倍. Also, the 肿瘤细胞生存活力 (CCK-8), KATO-Ⅲ, 100μg/ml antibody, 72 h was found to be 56.3%; the 肿瘤细胞生存活力 (CCK-8), KATO-Ⅲ(STEM), 100μg/ml antibody, 72 h is 66.6%; the 肿瘤细胞生存活力 (CCK-8), NCI-N87, 100μg/mL antibody, 72 h was 85%; the 肿瘤细胞生存活力 (CCK-8), NCI-N87(STEM), 100μg/mL antibody, 72 h was found to be 66.6%.
